According to article PMC6520328:

Molecular target: neonatal Fc receptor (FcRn) (UniProt P55899)
Assay: FcRn binding assay

Sequence of UniProt P55899 (P55899 whole entry, looked up, tested part not stated): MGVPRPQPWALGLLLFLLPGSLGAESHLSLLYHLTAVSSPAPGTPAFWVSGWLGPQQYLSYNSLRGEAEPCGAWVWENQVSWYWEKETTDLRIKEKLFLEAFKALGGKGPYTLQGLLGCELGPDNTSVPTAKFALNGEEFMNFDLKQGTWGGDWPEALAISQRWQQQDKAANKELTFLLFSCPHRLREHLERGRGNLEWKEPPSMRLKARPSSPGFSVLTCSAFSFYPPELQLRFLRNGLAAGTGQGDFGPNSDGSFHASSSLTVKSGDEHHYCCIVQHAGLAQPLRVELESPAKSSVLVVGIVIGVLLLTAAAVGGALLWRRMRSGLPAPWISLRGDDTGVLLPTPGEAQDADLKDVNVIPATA

FcRn binding relative to control tralokinumab: 87%
Substance: Fc deglycosylated tralokinumab (antibody)
